Measured values published in the Human Domainome abundance scans (Beltran et al. 2025).
± gives the uncertainty stated by the source.

B1: Pre-mRNA-processing factor 40 homolog B, residues 274 to 332; numbered along this chain, Q6NWY9 (parent)
chain: SNREKAKQAFKELLRDKAVPSNASWEQAMKMVVTDPRYSALPKLSEKKQAFNAYKAQRE

Variants of: B1
Experiment: abundance fitness (aPCA) (normalised: wild type 0, dead -1); higher = more abundant; growth selection in yeast, the domain comes from the species named
Conditions: Homo sapiens

Variant | abundance fitness
M31W | -0.865 ± 0.13
M31N | -0.364 ± 0.17
M31R | -0.266 ± 0.06
M31C | -0.422 ± 0.12
M31E | -0.109 ± 0.088
M31F | -0.634 ± 0.19
M31Y | -0.32 ± 0.14
M31K | -0.293 ± 0.094
M31D | -0.272 ± 0.11
M31S | -0.115 ± 0.077
M31V | -0.326 ± 0.084
M31T | -0.336 ± 0.11
M31P | -0.247 ± 0.15
M31H | -0.208 ± 0.17
M31G | -0.231 ± 0.059
M31Q | -0.246 ± 0.15
M31L | -0.189 ± 0.099
T34M | -0.071 ± 0.089
T34N | 0.232 ± 0.12
T34P | -0.554 ± 0.11
T34Q | -0.015 ± 0.1
T34R | -0.257 ± 0.06
T34A | 0.028 ± 0.061
T34S | 0.003 ± 0.068

Variant | abundance fitness
T34W | -0.544 ± 0.083
T34L | -0.358 ± 0.066
T34F | -0.382 ± 0.15
T34E | -0.039 ± 0.09
T34G | 0.108 ± 0.059
T34V | -0.419 ± 0.073
T34Y | -0.23 ± 0.11
T34I | -0.611 ± 0.11
T34H | 0.043 ± 0.12
S21L | 0.109 ± 0.087
S21T | 0.06 ± 0.093
S21H | -0.037 ± 0.47
S21C | -0.001 ± 0.1
S21M | 0.074 ± 0.11
S21W | -0.055 ± 0.13
S21Q | 0.014 ± 0.13
S21V | 0.089 ± 0.073
S21F | 0.029 ± 0.11
S21E | -0.054 ± 0.12
S21R | -0.083 ± 0.073
S21K | 0.134 ± 0.12
S21N | -0.492 ± 0.16
S21Y | 0.005 ± 0.12
S21P | -0.146 ± 0.1

Variant | abundance fitness
S21D | -0.077 ± 0.1
S21G | -0.103 ± 0.074
V32N | -0.294 ± 0.14
V32M | -0.175 ± 0.1
V32A | -0.489 ± 0.079
V32D | -0.347 ± 0.091
V32S | -0.343 ± 0.075
V32F | -0.619 ± 0.13
V32C | -0.113 ± 0.078
V32P | -0.439 ± 0.11
V32T | -0.094 ± 0.083
V32E | -0.166 ± 0.09
V32Q | -0.428 ± 0.14
V32G | -0.381 ± 0.055
V32I | 0.178 ± 0.086
V32Y | -0.583 ± 0.12
V32H | -0.091 ± 0.13
V32W | -0.732 ± 0.091
V32K | -0.171 ± 0.11
V32L | -0.182 ± 0.1
V32R | -0.599 ± 0.064
R37I | -0.228 ± 0.14
R37H | -0.776 ± 0.19
R37G | -0.577 ± 0.051

Variant | abundance fitness
R37W | -0.836 ± 0.085
R37A | -0.223 ± 0.069
R37M | -0.705 ± 0.094
R37E | -0.479 ± 0.082
R37Y | -1.25 ± 0.33
R37D | -0.74 ± 0.16
R37C | -0.668 ± 0.12
R37F | -0.905 ± 0.21
R37T | -0.658 ± 0.12
R37L | -0.6 ± 0.081
R37Q | -0.49 ± 0.11
E26F | -0.729 ± 0.16
E26P | -0.149 ± 0.099
E26K | -0.169 ± 0.13
E26A | -0.31 ± 0.091
E26Q | -0.412 ± 0.16
E26Y | -0.581 ± 0.14
E26H | -0.237 ± 0.22
E26V | -0.364 ± 0.083
E26M | -0.325 ± 0.19
E26D | -0.019 ± 0.12
E26S | -0.229 ± 0.089
E26I | -0.547 ± 0.15
E26W | -0.598 ± 0.11

Variant | abundance fitness
E26G | -0.274 ± 0.067
E26T | -0.006 ± 0.13
E26R | -0.719 ± 0.093
E26L | -0.362 ± 0.088
Y38I | -0.548 ± 0.18
Y38A | -0.317 ± 0.067
Y38L | -0.546 ± 0.073
Y38E | -0.399 ± 0.08
Y38H | -0.392 ± 0.13
Y38F | -0.02 ± 0.12
Y38G | -0.436 ± 0.059
Y38S | -0.293 ± 0.059
Y38M | -0.613 ± 0.096
Y38V | -0.38 ± 0.062
Y38C | -0.368 ± 0.11
Y38R | -0.476 ± 0.054
Y38P | -0.423 ± 0.081
Y38K | -0.217 ± 0.1
Y38N | -0.466 ± 0.13
Y38Q | -0.284 ± 0.1
Y38D | -0.346 ± 0.11
Y38W | -0.085 ± 0.07
Y38T | -0.136 ± 0.077
D35S | -0.716 ± 0.097

Variant | abundance fitness
D35R | -1.12 ± 0.093
D35W | -1.21 ± 0.12
D35M | -0.699 ± 0.12
D35K | -1.11 ± 0.18
D35G | -0.742 ± 0.063
D35E | -0.372 ± 0.084
D35Y | -1.38 ± 0.31
D35I | -0.94 ± 0.2
D35L | -0.853 ± 0.1
D35F | -0.951 ± 0.26
D35A | -0.701 ± 0.083
D35P | -0.905 ± 0.14
D35N | -0.415 ± 0.15
D35T | -0.714 ± 0.13
D35Q | -0.823 ± 0.16
D35V | -0.85 ± 0.079
Q27E | 0.115 ± 0.11
Q27K | -0.292 ± 0.12
Q27N | -0.174 ± 0.15
Q27W | -1 ± 0.095
Q27F | -0.884 ± 0.23
Q27S | -0.406 ± 0.11
Q27V | -0.297 ± 0.091
Q27R | -0.342 ± 0.059

Variant | abundance fitness
Q27H | -0.096 ± 0.24
Q27Y | -0.524 ± 0.15
Q27P | -0.531 ± 0.2
Q27C | -0.422 ± 0.11
Q27M | -0.297 ± 0.14
Q27G | -0.358 ± 0.059
Q27T | 0.027 ± 0.11
Q27I | -0.301 ± 0.2
Q27A | -0.143 ± 0.091
P36R | -0.24 ± 0.064
P36A | -0.19 ± 0.076
P36Q | -0.289 ± 0.13
P36N | -0.418 ± 0.17
P36G | -0.391 ± 0.059
P36Y | -0.806 ± 0.13
P36C | -0.381 ± 0.11
P36V | -0.353 ± 0.074
P36W | -0.669 ± 0.092
P36H | -0.445 ± 0.21
P36T | -0.293 ± 0.1
P36E | -0.103 ± 0.086
P36S | -0.366 ± 0.075
P36M | -0.607 ± 0.1
